Measured values reported in doi:10.1101/2025.09.02.673761 (bioRxiv, 2025).

Target: GFP-tagged holo-CPC (Chromosomal Passenger Complex: INCENP, GFP-Aurora B, Borealin, Survivin) (human, UniProt Q9NQS7;Q96GD4;Q53HL2;O15392)
Experiment: pull-down

Chain of GFP-tagged holo-CPC (Chromosomal Passenger Complex: INCENP, GFP-Aurora B, Borealin, Survivin) (Q9NQS7 whole entry, chain 1 of 4): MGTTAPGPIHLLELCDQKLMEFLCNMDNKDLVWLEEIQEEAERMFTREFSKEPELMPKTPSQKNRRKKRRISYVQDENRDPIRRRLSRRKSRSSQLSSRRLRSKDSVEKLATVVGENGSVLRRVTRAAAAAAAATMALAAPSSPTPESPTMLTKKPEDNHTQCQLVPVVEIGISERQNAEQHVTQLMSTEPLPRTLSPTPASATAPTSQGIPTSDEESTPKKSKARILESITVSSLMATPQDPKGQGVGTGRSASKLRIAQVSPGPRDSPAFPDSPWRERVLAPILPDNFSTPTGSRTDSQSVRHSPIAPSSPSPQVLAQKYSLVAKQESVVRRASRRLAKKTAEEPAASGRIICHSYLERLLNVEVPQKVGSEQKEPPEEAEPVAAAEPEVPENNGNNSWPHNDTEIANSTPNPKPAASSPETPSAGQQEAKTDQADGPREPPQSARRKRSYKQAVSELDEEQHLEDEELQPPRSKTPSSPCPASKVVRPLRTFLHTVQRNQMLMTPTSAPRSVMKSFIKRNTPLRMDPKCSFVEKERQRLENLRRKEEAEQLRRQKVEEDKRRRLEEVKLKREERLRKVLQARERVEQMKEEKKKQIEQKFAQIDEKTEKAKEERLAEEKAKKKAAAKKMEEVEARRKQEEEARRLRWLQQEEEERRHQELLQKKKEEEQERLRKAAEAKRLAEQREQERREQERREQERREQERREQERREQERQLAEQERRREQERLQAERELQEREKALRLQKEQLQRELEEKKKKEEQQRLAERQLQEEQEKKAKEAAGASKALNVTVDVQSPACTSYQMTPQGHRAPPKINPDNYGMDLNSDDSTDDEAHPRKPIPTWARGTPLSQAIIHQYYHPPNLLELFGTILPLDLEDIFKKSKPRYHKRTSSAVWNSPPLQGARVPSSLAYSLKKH
Chain of GFP-tagged holo-CPC (Chromosomal Passenger Complex: INCENP, GFP-Aurora B, Borealin, Survivin) (Q96GD4 whole entry, chain 2 of 4): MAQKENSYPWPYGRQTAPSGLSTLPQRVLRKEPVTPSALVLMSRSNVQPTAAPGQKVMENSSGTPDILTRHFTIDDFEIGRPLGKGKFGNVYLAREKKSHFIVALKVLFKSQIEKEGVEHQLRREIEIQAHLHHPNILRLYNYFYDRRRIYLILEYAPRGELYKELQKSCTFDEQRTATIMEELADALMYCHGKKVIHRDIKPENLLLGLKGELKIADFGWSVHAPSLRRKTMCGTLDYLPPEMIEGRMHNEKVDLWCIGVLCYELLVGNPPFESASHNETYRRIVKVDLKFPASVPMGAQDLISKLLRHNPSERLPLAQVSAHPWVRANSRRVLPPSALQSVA
Chain of GFP-tagged holo-CPC (Chromosomal Passenger Complex: INCENP, GFP-Aurora B, Borealin, Survivin) (Q53HL2 whole entry, chain 3 of 4): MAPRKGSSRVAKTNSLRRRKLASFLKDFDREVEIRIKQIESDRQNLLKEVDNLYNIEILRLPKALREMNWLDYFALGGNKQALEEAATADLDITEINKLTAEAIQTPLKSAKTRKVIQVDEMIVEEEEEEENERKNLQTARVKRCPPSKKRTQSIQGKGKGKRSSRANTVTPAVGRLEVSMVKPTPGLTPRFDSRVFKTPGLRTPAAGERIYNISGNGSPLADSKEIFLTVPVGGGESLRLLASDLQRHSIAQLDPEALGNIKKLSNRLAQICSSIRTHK
Chain of GFP-tagged holo-CPC (Chromosomal Passenger Complex: INCENP, GFP-Aurora B, Borealin, Survivin) (O15392 whole entry, chain 4 of 4): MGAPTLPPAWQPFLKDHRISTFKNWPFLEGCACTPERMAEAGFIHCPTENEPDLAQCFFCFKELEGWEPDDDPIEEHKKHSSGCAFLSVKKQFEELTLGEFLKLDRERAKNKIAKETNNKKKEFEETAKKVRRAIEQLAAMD

B1: KIF20A (kinesin-6 motor), unlabeled (natural protein)
chain: MSQGILSPPAGLLSDDDVVVSPMFESTAADLGSVVRKNLLSDCSVVSTSLEDKQQVPSEDSMEKVKVYLRVRPLLPSELERQEDQGCVRIENVETLVLQAPKDSFALKSNERGIGQATHRFTFSQIFGPEVGQASFFNLTVKEMVKDVLKGQNWLIYTYGVTNSGKTHTIQGTIKDGGILPRSLALIFNSLQGQLHPTPDLKPLLSNEVIWLDSKQIRQEEMKKLSLLNGGLQEEELSTSLKRSVYIESRIGTSTSFDSGIAGLSSISQCTSSSQLDETSHRWAQPDTAPLPVPANIRFSIWISFFEIYNELLYDLLEPPSQQRKRQTLRLCEDQNGNPYVKDLNWIHVQDAEEAWKLLKVGRKNQSFASTHLNQNSSRSHSIFSIRILHLQGEGDIVPKISELSLCDLAGSERCKDQKSGERLKEAGNINTSLHTLGRCIAALRQNQQNRSKQNLVPFRDSKLTRVFQGFFTGRGRSCMIVNVNPCASTYDETLHVAKFSAIASQLVHAPPMQLGFPSLHSFIKEHSLQVSPSLEKGAKADTGLDDDIENEADISMYGKEELLQVVEAMKTLLLKERQEKLQLEMHLRDEICNEMVEQMQQREQWCSEHLDTQKELLEEMYEEKLNILKESLTSFYQEEIQERDEKIEELEALLQEARQQSVAHQQSGSELALRRSQRLAASASTQQLQEVKAKLQQCKAELNSTTEELHKYQKMLEPPPSAKPFTIDVDKKLEEGQKNIRLLRTELQKLGESLQSAERACCHSTGAGKLRQALTTCDDILIKQDQTLAELQNNMVLVKLDLRKKAACIAEQYHTVLKLQGQVSAKKRLGTNQENQQPNQQPPGKKPFLRNLLPRTPTCQSSTDCSPYARILRSRRSPLLKSGPFGKKY
**Q.** Does B1 bind?
**A.** binds
